Reference: the supplement of paper PMC10065799, “High-throughput profiling of sequence recognition by tyrosine kinases and SH2 domains using bacterial peptide display” (eLife, 2023)

Legend:
[1] = tested on: AncSZ; assay: phosphorylation enrichment, bacterial display (enrichment ratio); higher = better substrate or ligand; peptides without Tyr show the background
[2] = target: EPHB1 (UniProt P54762); assay: as above
[3] = target: EPHB2 (UniProt P29323); assay: as above
[4] = target: FGFR1 (UniProt P11362); assay: as above
[5] = target: FGFR3 (UniProt P22607); assay: as above
Sequence of FGFR3 (P22607 whole entry, looked up): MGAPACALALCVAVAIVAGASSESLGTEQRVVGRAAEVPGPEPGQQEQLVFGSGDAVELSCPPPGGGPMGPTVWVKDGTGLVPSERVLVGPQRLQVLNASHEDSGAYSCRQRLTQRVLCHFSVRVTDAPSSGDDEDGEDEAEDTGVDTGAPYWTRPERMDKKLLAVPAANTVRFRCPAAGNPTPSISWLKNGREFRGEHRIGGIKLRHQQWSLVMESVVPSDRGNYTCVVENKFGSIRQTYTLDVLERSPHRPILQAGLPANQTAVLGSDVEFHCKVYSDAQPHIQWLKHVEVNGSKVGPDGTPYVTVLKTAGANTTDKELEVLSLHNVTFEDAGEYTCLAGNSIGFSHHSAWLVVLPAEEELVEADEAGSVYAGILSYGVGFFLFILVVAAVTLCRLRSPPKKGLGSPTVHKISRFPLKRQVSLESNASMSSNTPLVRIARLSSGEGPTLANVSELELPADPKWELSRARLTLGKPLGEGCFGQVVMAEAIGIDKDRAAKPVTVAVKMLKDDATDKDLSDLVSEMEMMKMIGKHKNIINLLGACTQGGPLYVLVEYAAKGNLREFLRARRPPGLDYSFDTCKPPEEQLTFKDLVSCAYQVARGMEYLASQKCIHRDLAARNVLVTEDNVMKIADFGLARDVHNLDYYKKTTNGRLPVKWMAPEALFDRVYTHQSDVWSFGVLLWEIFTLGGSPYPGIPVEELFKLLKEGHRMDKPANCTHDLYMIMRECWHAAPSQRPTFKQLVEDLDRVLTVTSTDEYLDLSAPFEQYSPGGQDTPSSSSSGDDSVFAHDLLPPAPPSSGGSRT

[6] = tested on: Fer (mouse); assay: as above
[7] = target: Fes (UniProt P07332); assay: as above
Sequence of Fes (P07332 whole entry, looked up): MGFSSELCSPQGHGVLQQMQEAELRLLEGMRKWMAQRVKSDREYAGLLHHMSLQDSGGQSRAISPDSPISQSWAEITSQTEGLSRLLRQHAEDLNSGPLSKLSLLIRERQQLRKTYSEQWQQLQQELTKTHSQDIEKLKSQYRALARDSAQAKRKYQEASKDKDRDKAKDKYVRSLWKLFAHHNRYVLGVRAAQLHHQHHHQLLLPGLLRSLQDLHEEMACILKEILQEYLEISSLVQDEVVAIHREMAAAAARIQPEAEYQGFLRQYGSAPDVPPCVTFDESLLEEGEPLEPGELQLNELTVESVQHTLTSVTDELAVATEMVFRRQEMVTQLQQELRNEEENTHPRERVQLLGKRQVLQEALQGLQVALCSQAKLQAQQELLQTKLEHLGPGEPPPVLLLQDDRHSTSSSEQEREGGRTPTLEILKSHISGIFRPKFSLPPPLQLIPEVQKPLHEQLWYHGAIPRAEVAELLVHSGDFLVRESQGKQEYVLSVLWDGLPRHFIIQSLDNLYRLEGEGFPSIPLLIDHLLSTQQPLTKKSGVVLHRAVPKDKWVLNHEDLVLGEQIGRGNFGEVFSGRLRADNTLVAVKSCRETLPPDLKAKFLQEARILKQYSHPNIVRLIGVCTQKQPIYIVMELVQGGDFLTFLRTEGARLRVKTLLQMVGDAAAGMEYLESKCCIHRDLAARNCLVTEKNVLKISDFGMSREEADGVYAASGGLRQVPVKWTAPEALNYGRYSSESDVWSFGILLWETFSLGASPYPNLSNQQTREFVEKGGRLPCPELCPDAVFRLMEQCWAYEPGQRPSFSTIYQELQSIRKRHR

[8] = target: Fyn (UniProt P06241); assay: as above
Sequence of Fyn (P06241 whole entry, looked up): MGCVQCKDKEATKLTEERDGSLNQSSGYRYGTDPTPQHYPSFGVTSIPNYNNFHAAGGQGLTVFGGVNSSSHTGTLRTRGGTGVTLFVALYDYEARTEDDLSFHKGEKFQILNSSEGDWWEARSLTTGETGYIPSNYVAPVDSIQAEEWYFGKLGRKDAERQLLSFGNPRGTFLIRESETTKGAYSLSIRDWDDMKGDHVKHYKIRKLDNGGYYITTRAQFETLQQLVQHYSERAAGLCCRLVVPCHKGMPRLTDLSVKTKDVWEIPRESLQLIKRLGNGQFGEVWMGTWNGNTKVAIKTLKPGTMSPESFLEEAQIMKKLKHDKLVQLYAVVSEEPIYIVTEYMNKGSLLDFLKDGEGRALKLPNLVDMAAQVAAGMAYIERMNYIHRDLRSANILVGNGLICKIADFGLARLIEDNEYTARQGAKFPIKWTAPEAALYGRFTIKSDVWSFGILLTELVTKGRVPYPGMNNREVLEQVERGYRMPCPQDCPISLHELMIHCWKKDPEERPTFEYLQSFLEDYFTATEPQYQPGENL

[9] = target: Hck (UniProt P08631); assay: as above
Sequence of Hck (P08631 whole entry, looked up): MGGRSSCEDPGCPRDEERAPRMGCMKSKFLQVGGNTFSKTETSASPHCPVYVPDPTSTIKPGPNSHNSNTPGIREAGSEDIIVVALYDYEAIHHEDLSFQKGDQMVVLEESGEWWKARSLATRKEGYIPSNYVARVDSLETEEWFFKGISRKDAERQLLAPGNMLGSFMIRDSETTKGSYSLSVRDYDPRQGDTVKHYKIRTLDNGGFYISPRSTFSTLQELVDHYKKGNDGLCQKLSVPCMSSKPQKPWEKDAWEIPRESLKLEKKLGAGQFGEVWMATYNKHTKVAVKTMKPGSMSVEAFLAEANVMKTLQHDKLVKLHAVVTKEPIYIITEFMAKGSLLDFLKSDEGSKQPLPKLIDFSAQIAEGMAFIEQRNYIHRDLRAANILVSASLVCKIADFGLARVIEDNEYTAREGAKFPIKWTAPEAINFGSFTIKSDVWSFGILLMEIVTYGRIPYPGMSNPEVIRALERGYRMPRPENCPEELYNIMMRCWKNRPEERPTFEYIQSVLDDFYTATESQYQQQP

[10] = target: Jak2 (UniProt O60674); assay: as above
Sequence of Jak2 (O60674 whole entry, looked up): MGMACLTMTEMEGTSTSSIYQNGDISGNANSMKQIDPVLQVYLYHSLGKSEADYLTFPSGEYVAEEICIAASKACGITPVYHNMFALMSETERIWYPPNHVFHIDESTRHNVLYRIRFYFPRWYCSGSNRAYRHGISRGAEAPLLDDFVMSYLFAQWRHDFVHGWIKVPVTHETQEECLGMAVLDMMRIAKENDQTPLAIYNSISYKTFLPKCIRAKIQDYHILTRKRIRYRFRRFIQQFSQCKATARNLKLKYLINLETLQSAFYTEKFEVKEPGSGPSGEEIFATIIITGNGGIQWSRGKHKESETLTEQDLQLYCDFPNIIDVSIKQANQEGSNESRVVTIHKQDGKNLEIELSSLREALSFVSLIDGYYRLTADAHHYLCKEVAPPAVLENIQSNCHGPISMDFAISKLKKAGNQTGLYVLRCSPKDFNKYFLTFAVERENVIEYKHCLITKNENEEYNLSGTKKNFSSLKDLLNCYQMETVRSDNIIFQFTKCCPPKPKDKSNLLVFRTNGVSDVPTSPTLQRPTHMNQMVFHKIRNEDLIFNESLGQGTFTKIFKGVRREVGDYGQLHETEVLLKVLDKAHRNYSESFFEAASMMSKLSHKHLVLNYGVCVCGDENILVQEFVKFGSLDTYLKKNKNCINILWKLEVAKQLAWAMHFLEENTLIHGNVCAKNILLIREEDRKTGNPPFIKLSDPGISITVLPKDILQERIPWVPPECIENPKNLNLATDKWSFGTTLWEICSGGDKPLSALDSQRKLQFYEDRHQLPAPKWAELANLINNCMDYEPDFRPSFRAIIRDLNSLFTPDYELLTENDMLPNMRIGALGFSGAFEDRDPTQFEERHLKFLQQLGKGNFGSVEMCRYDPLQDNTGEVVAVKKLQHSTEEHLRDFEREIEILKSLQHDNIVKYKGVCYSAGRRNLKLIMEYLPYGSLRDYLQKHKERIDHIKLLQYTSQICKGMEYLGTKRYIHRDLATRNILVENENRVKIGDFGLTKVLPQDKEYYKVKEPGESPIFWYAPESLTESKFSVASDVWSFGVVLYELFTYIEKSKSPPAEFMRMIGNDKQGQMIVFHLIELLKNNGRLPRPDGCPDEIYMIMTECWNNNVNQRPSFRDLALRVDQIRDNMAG

[11] = target: MERTK (UniProt Q12866); assay: as above
[12] = tested on: c-Abl (mouse); assay: as above
[13] = tested on: c-Src; assay: as above
[14] = target: Grb2 SH2 (UniProt P62993); assay: SH2 binding enrichment of the phosphorylated peptide, bacterial display (enrichment ratio); higher = better substrate or ligand; peptides without Tyr show the background
Sequence of Grb2 SH2 (P62993 whole entry, looked up): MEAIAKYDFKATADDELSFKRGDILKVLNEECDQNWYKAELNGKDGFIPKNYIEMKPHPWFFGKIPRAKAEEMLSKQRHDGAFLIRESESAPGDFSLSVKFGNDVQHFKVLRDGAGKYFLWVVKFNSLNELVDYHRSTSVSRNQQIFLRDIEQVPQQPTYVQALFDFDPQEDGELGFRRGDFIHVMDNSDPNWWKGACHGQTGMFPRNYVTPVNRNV

[15] = target: SHP2-C SH2; assay: as above
[16] = target: c-Src SH2; assay: as above
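Throughout, for SH2 binding enrichment of the phosphorylated peptide, bacterial display: peptide library displayed on the E. coli surface as eCPX fusions, selected cells deep-sequenced, score is each peptide's frequency after selection divided by its frequency in the input.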
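Throughout, for phosphorylation enrichment, bacterial display: 11-residue human phosphosite peptides and single-mutation variants displayed on the E. coli surface, counted by deep sequencing, each peptide's frequency after selection divided by its frequency in the unselected input library; frequency after pTyr selection over input frequency; kinase dosed for 20-30% of maximal phosphorylation in three min.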

Sequence of EPHB1 (P54762 whole entry, looked up): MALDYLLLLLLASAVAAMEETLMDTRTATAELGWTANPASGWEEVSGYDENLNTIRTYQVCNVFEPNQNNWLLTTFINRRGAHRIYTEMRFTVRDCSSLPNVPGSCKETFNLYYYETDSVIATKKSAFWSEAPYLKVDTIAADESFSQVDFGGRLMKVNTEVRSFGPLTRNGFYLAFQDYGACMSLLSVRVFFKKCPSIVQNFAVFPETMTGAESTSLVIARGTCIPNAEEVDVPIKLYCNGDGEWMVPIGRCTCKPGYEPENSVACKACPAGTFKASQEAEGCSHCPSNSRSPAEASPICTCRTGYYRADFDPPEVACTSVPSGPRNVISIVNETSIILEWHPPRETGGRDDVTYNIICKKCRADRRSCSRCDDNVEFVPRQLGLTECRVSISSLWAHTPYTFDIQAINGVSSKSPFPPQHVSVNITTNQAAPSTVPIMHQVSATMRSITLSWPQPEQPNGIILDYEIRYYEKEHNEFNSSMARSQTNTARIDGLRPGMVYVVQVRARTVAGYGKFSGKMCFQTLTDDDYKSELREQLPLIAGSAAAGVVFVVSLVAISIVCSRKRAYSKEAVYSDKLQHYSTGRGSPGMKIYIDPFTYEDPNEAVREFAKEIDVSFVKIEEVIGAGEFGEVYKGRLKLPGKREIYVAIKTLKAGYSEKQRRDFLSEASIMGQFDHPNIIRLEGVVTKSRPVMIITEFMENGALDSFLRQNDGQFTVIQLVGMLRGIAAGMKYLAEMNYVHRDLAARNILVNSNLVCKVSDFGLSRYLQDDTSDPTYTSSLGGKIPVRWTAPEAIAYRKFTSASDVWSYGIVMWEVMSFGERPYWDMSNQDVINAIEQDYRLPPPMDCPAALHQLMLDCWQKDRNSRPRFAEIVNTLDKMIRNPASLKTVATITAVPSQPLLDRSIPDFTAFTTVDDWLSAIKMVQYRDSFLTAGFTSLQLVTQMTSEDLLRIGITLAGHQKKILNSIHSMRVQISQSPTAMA

| Sequence | phosphorylation enrichment [1] | phosphorylation enrichment [2] | phosphorylation enrichment [3] | phosphorylation enrichment [4] | phosphorylation enrichment [5] | phosphorylation enrichment [6] | phosphorylation enrichment [7] | phosphorylation enrichment [8] | phosphorylation enrichment [9] | phosphorylation enrichment [10] | phosphorylation enrichment [11] | phosphorylation enrichment [12] | phosphorylation enrichment [13] | SH2 binding enrichment [14] | SH2 binding enrichment [15] | SH2 binding enrichment [16] |
| --- | --- | --- | --- | --- | --- | --- | --- | --- | --- | --- | --- | --- | --- | --- | --- | --- |
| QKINNYLTVPA [SLC9A1_Y683] | 0.618 | 1.34 | 0.706 | 0.758 | 0.445 | 0.497 | 0.727 | 0.508 | 0.689 | 0.615 | 0.65 | 0.833 | 0.524 | 0.469 | 0.573 | 0.376 |
| NFATLHLKIFH [PDE6B_Y219_Y219H_YF] | 1.26 | 0.607 | 0.74 | 0.652 | 0.817 | 0.565 | 1.44 | 0.519 | 0.492 | 1.24 | 0.56 | 0.918 | 0.522 | 1.22 | 1.26 | 1.04 |
| WQLEIYRASRP [ERCC4_Y594_R589W] | 1.27 | 0.567 | 0.628 | 0.375 | 0.702 | 0.471 | 1.22 | 0.492 | 0.491 | 0.911 | 0.521 | 0.997 | 0.45 | 0.717 | 0.546 | 0.599 |
| ASKEPYYVRCI [MYO1D_Y585] | 1.35 | 0.877 | 0.802 | 0.686 | 0.813 | 0.557 | 1.17 | 0.521 | 0.464 | 1.21 | 0.618 | 1.19 | 0.595 | 0.702 | 0.391 | 0.481 |
| GMKIVYVFVKK [DNAI2_Y5_E2K_YF] | 1.2 | 0.59 | 0.538 | 0.433 | 0.706 | 0.416 | 1.14 | 0.463 | 0.428 | 1 | 1.06 | 0.863 | 0.394 | 1.18 | 1.21 | 0.677 |
| LMQAEYWHDPI [PPT1_Y185_V181M] | 1.36 | 1.2 | 0.863 | 6.07 | 4.42 | 0.773 | 1.56 | 0.835 | 0.769 | 1.16 | 0.557 | 0.724 | 0.54 | 0.999 | 0.68 | 0.983 |
| MKGDYYRSLAE [YWHAG_Y131_Y133S] | 1.1 | 0.422 | 0.508 | 0.96 | 0.742 | 0.426 | 0.738 | 0.466 | 0.427 | 1.14 | 0.44 | 0.463 | 0.428 | 0.813 | 0.625 | 0.415 |
| GEETDYTPVWC [UROD_Y30] | 1.62 | 0.587 | 0.791 | 0.655 | 0.92 | 1.02 | 1.43 | 0.535 | 0.556 | 1.04 | 0.468 | 0.785 | 0.552 | 0.864 | 0.748 | 0.687 |
| EEGRVYVYRLS [ITGAE_Y549] | 0.904 | 0.595 | 0.504 | 0.496 | 0.76 | 0.505 | 1.11 | 0.616 | 0.548 | 0.997 | 0.379 | 0.713 | 0.698 | 0.934 | 2.07 | 0.66 |
| MWGSDYVQLSR [MAP3K4_Y582] | 1.67 | 9.41 | 6.29 | 7.1 | 4.02 | 0.383 | 0.765 | 0.685 | 1.12 | 5.71 | 0.561 | 0.53 | 1.08 | 0.646 | 0.521 | 0.583 |
| AEYGLYGAMVW [VSX2_Y222_R227W] | 1.45 | 1.33 | 4 | 0.521 | 0.86 | 4.58 | 1.37 | 6.22 | 5.32 | 1.25 | 2.66 | 1.1 | 4.49 | 0.62 | 0.696 | 0.419 |
| WAFNLYDINKD [KCNIP3_Y174] | 1.43 | 1.27 | 1.64 | 0.541 | 0.763 | 1.82 | 1.45 | 1.92 | 2.65 | 1.17 | 1.3 | 0.91 | 1.78 | 0.718 | 0.6 | 0.563 |
| MDQAEYQAKIQ [DHX58_Y518_R523Q] | 0.99 | 0.563 | 0.7 | 0.625 | 0.685 | 0.864 | 1.05 | 0.464 | 0.555 | 0.743 | 0.519 | 0.726 | 0.556 | 0.744 | 0.424 | 0.412 |
| TLMNAYSSRCH [KIF11_Y231_S235C] | 1 | 0.602 | 0.553 | 0.492 | 0.637 | 0.535 | 0.836 | 0.571 | 0.496 | 0.776 | 0.448 | 0.738 | 0.471 | 0.943 | 0.726 | 0.581 |
| EHTTLYSDNST [KANSL1_Y223_N225D] | 0.697 | 0.45 | 0.433 | 0.475 | 0.591 | 0.661 | 0.801 | 0.407 | 0.561 | 0.654 | 0.443 | 0.512 | 0.497 | 0.949 | 0.723 | 0.585 |
| TEAEPYFCSLR [NPHS1_Y1138_R1140C_YF] | 1.11 | 0.565 | 0.615 | 0.551 | 0.698 | 0.466 | 1.22 | 0.544 | 0.576 | 1.51 | 0.48 | 0.814 | 0.932 | 0.848 | 0.647 | 0.638 |
| KKYPDYIQIAM [SGMS2_Y59] | 1.45 | 10 | 1.69 | 9.52 | 5.93 | 0.52 | 0.949 | 0.448 | 0.581 | 1.46 | 0.435 | 0.729 | 0.483 | 1.04 | 0.787 | 0.644 |

| Sequence | phosphorylation enrichment [1] | phosphorylation enrichment [2] | phosphorylation enrichment [3] | phosphorylation enrichment [4] | phosphorylation enrichment [5] | phosphorylation enrichment [6] | phosphorylation enrichment [7] | phosphorylation enrichment [8] | phosphorylation enrichment [9] | phosphorylation enrichment [10] | phosphorylation enrichment [11] | phosphorylation enrichment [12] | phosphorylation enrichment [13] | SH2 binding enrichment [14] | SH2 binding enrichment [15] | SH2 binding enrichment [16] |
| --- | --- | --- | --- | --- | --- | --- | --- | --- | --- | --- | --- | --- | --- | --- | --- | --- |
| PVQAAYQKVEA [HBB_Y131_V135E] | 0.921 | 0.54 | 0.559 | 0.709 | 0.525 | 0.676 | 0.887 | 0.597 | 0.653 | 1.16 | 0.604 | 0.879 | 0.587 | 1.02 | 0.733 | 1.05 |
| SHLSAYPALEG [CD5_Y465] | 0.611 | 0.351 | 0.398 | 0.404 | 0.411 | 0.409 | 0.591 | 0.375 | 0.372 | 0.483 | 0.324 | 0.531 | 0.343 | 0.897 | 0.687 | 0.618 |
| LWPIWYRCHRP [MRGPRX1_Y130] | 1.86 | 0.721 | 0.893 | 1.04 | 1.02 | 0.702 | 1.63 | 0.798 | 0.699 | 1.17 | 0.804 | 1.15 | 0.466 | 1.09 | 1.06 | 0.416 |
| HKNNNYEPNLF [BRCA2_Y57] | 0.739 | 1.95 | 0.89 | 1.2 | 0.508 | 0.62 | 0.767 | 0.577 | 0.61 | 0.477 | 0.539 | 0.563 | 0.579 | 0.637 | 0.502 | 0.413 |
| ESMNIYLQTSP [NAT1_Y208_T207I] | 1.21 | 0.752 | 0.697 | 0.674 | 0.87 | 0.635 | 1.05 | 0.847 | 1.05 | 1.17 | 0.618 | 0.812 | 1.06 | 0.829 | 0.455 | 0.441 |
| GKGGSYSKAES [HLA-E_Y341_W346S] | 0.485 | 0.3 | 0.295 | 0.391 | 0.394 | 0.307 | 0.514 | 0.375 | 0.359 | 0.386 | 0.447 | 0.462 | 0.423 | 0.73 | 0.499 | 0.389 |
| LKKLEYLNLAL [LRRC6_Y70] | 1.05 | 0.81 | 0.987 | 1.36 | 1.14 | 0.549 | 1.43 | 0.408 | 0.489 | 1.23 | 0.296 | 0.574 | 0.367 | 2.59 | 1.49 | 0.424 |
| ATAKGYEPDAS [OTC_Y223_P220A] | 0.883 | 0.523 | 0.523 | 0.481 | 0.549 | 0.473 | 0.784 | 0.441 | 0.483 | 0.684 | 0.416 | 0.598 | 0.461 | 0.836 | 0.598 | 0.494 |
| NPETCYQKLKK [TK2_Y190_R192K] | 0.906 | 0.583 | 0.451 | 0.444 | 0.774 | 0.509 | 1.07 | 0.428 | 0.583 | 0.921 | 0.386 | 0.765 | 0.425 | 0.829 | 0.814 | 0.783 |
| PQGVRYTFTID [DCX_Y103_I104T_YF] | 1.41 | 0.768 | 1.04 | 0.521 | 1.36 | 0.796 | 1.66 | 0.7 | 0.642 | 1.48 | 0.356 | 1.55 | 0.529 | 0.786 | 0.729 | 0.452 |
| VLTSKYCGGGG [HBA1_Y141_R142C] | 0.603 | 0.474 | 0.419 | 0.384 | 0.577 | 0.394 | 0.772 | 0.429 | 0.467 | 0.634 | 0.391 | 0.747 | 0.354 | 0.884 | 0.804 | 0.545 |
| HAVFIYDICHV [TWNK_Y508_V507I_YF] | 1.19 | 3.04 | 3.98 | 0.54 | 0.956 | 4.14 | 1.56 | 3.92 | 2.59 | 1.26 | 3.24 | 1.89 | 2.49 | 1.34 | 0.793 | 0.619 |
| LFMGDYVDRGF [PPP2CA_Y86_YF] | 0.95 | 0.961 | 1.19 | 0.822 | 0.943 | 0.546 | 0.963 | 0.814 | 0.673 | 0.696 | 0.396 | 0.616 | 0.61 | 1.04 | 0.577 | 0.54 |
| PLDNLYAEPAV [PRPS1_Y146_V142L] | 2.72 | 9.6 | 12.9 | 0.719 | 1.09 | 4.92 | 1.66 | 2.13 | 4.65 | 1.83 | 8.88 | 10.6 | 2.06 | 0.995 | 0.655 | 0.486 |
| DGLALYTGSAL [COL6A3_Y524_S521L] | 1.09 | 0.968 | 0.936 | 0.479 | 0.723 | 0.758 | 1.17 | 0.614 | 0.901 | 0.901 | 0.55 | 0.749 | 0.635 | 0.695 | 0.46 | 0.36 |
| KTDKKYLMIKE [BAG3_Y451_E455K] | 0.64 | 0.426 | 0.439 | 0.423 | 0.526 | 0.373 | 0.877 | 0.368 | 0.368 | 0.636 | 0.408 | 0.616 | 0.392 | 0.897 | 0.836 | 0.499 |
